Data: patent US20230322908A1 (AC IMMUNE, published 2023)

T1: TP-51 peptide (aa 352-414 of SEQ ID NO:1) (human)
T1 construct: Synthetic peptide (Pepscan)
T1 peptide: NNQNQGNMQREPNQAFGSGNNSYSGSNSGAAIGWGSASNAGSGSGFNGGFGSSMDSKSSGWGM


Tests used:
[1] = biological target: T1, TP-51 peptide (aa 352-414 of SEQ ID …); test: SPR 8K, mAb captured, TP-51 injected
Procedure: The instrument was primed with running buffer PBS-P+. Fc 1-2 of channels 1-8 (8 K) were activated with a fresh solution of EDC/NHS(Amine Coupling Kit, 1:1 ratio of both reagents, GE Healthcare Life Sciences, BR-1006-33) at 10 µL/min for 420 sec and goat anti-human antibody (GE Healthcare Life Sciences, 29234600) was immobilized at 25 µg/mL in 10 mM sodium acetate pH 5 for 420 sec. Next, all Fc were quenched with 1 M ethanol amine(GE Healthcare Life Sciences, BR-1006-33), for 420 sec. Any non-covalently bound antibodies were removed by two regenerations with 10 mM Glycine-HCl pH 1.7 for 30 sec. Immobilization levels were evaluated following ethanolamine quenching (10000 RU for all channels).
Each cycle started with non-covalent capture of humanized variants which were diluted in running buffer to a final concentration of 2 µg/mL and injected for 60 sec with a flow rate of 10 µL/min. TDP-43 mAbs were captured on channels 1-8, leaving Fc 1 as a blank Fc. Capture levels were evaluated following a 120 sec stabilization period after each mAb injection and ranged from 300-500 RU.
Injections of TP-51 peptide (Pepscan) were performed in single-cycle kinetics with increasing concentrations ranging from 1.2-100 nM prepared from serial 3-fold dilutions. Injections were performed with contact times of 300 sec/injection at a flow rate of 25 µL/min. A dissociation phase of 3600 sec followed the final injection. Sensor surface was regenerated by one injection of 10 mM Glycine-HCl pH 1.7 at a flow rate of 10 µL/min for 120 sec, followed by a stabilization period of 300 sec. Results obtained from single-cycle kinetics were double-referenced using the blank Fc 1 and buffer cycles and evaluated by Biacore 8 K evaluation software with 1:1 kinetic fit model with RI and global Rmax. The following kinetic parameters were obtained: association rate constant (ka), dissociation rate constant (kd), affinity constant (KD) and saturation response (Rmax).

[2] = biological target: T2, recombinant human full-length TDP-43 (TAR DNA-binding protein 43), soluble (human, UniProt Q13148 1-414); test: SPR 8K, immobilized soluble TDP-43
T2 construct: Used on Luminex beads, coated on ELISA plates, and immobilized or injected in SPR; also called FL TDP-43; TDP-43 protein
Procedure: The instrument was primed with running buffer PBS-P+ and flow cells (Fc) 1 and 2 of channels 1-8 were activated with a fresh solution of EDC/NHS (Amine Coupling Kit, 1:1 ratio of both reagents, GE Healthcare Life Sciences, BR-1006-33) at 10 µL/min for 420 sec. Soluble TDP-43 (Selvita) was diluted in sodium acetate pH 4.5 to a final concentration of 5 µg/mL and injected for 900 sec with a flow rate of 5 µL/min on Fc 2. All flow cells were quenched with 1 M ethanol amine (GE Healthcare Life Sciences, BR-1006-33), at 10 µL/min for 420 sec. Immobilization levels after ethanolamine quenching were 680 RU on all eight channels. Prior to analysis, two Startup cycles were run. Increasing mAbs concentrations were injected in single-cycle kinetics ranging from 1.2 to 100 nM, prepared from a 3-fold serial dilution in running buffer, with a contact time of 300 sec and a dissociation time of 900 sec at a flow rate of 30 µL/min. Each cycle was followed by one regeneration using 10 mM Glycine-HCl pH 1.7 with a contact time of 30 sec at 30 µL/min, followed by a stabilization period of 300 sec. Results obtained from single-cycle kinetics were double-referenced using the blank Fc 1 and buffer cycles and evaluated using Biacore 8 K evaluation software using the 1:1 kinetic fit model with RI and global Rmax. The following kinetic parameters were obtained: association rate constant (ka), dissociation rate constant (kd), affinity constant (KD) and saturation response (Rmax).

[3] = biological target: T3, recombinant human aggregated full-length TDP-43 (human, UniProt Q13148 1-414); test: SPR, immobilized aggregated TDP-43
T3 construct: also called aggregated TDP-43; aggregated FL TDP-43
Procedure: (§1) Binding avidity to soluble or aggregated FL TDP-43 was evaluated by determing the dissociation constants (KD) using surface plasmon resonance (SPR; Biacore T200, GE Healthcare Life Sciences). Recombinant human soluble or aggregated FL TDP-43 were immobilized on a CM5 Series S sensor chip (GE Healthcare Life Sciences) by amine coupling. Soluble TDP-43 was immobilized at a concentration of 5 µg/ml in 10 mM sodium acetate (pH 4.5) with a flow rate of 5 µl/min for 420 seconds resulting in an immobilization level of 150 RU. Aggregated TDP-43 was immobilized at a concentration of 50 µg/ml in 10 mM sodium acetate (pH 4.5) with a flow rate of 5 µl/min for 840 seconds resulting in an immobilization level of 110 RU. Biotinylated TP-73 peptide (aa 181-190 of SEQ ID NO:1) was immobilized on a Series S Sensor Chip SA (GE Healthcare Life Sciences) at a concentration of 5 µg/ml in PBS-P⁺ with a flow rate of 5 µl/min for 30 seconds resulting in an immobilization level of 400 RU. […] The antibodies were injected at a flow rate of 50 µl/min for 90 seconds contact time and 700 seconds dissociation phase followed by three regenerations with 10 mM glycine-HCl pH 1.7. For the optimized SPR protocol the antibodies were diluted 3-fold starting from 300 nM and dilute down to 1.2 nM and injected for 300 seconds at 30 µl/min followed by 600 seconds dissociation. The surface was regenerated by one injection with 10 mM glycine-HCl pH 1.7. Results obtained from binding kinetics were double-referenced using a blank flow cell and a buffer cycle and were evaluated with a global 1:1 fitting model with RI. Avidities for 11 antibodies and two Fab fragments are depicted in Table 8. […] In addition, some antibodies show preferential binding to aggregated TDP-43 as compared with soluble TDP-43.

[4] = biological target: T2, recombinant human full-length TDP-43 …; test: SPR, immobilized soluble TDP-43
Procedure: as §1

T2 sequence (Q13148 whole entry): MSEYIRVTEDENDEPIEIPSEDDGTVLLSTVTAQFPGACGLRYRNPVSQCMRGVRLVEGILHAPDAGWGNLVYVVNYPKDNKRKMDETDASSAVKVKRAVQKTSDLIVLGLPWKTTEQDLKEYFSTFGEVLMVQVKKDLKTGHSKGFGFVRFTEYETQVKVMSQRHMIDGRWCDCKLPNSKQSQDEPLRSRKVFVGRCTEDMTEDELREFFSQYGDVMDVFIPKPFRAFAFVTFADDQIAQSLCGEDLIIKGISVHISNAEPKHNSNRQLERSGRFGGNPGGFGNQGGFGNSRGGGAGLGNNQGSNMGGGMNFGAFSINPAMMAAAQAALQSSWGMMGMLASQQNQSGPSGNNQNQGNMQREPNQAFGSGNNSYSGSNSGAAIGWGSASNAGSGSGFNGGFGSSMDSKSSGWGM
T3 sequence (Q13148 whole entry): as above

Binder	Kd [1] [nM]	koff [1] [s⁻¹]	kon [1] [M⁻¹ s⁻¹]	Kd [2] [nM]	koff [2] [s⁻¹]	kon [2] [M⁻¹ s⁻¹]	Kd [3] [nM]	koff [3] [s⁻¹]	kon [3] [M⁻¹ s⁻¹]	Kd [4] [nM]	koff [4] [s⁻¹]	kon [4] [M⁻¹ s⁻¹]
hACI-7069-633B12-Ab1_H19L14 (IgG4) (antibody, V domains shown) VH: QVQLVQSGAEVKKPGASVKVSCKTSGFTFTEYSMHWVRQAPGQRLEWIGGINPGNAGTSYNQKFKGRVTITVDTSASTAYMELSSLRSEDTAVYYCARESWGQGTTVTVSS VL: DVVMTQSPLSLPVTLGQPASISCKSSQSLLHSDAKTYLNWLQQRPGQSPRRLIYLVSKLDSGVPDRFSGSGSGTDFTLKISRVEAEDLGVYYCFQGTHFPHTFGQGTKLEIK	9.4	0.0011	120000	1.01	3e-05	30000						
hACI-7069-633B12-Ab1_H19L18 (IgG4) (antibody, V domains shown) VH: QVQLVQSGAEVKKPGASVKVSCKTSGFTFTEYSMHWVRQAPGQRLEWIGGINPGNAGTSYNQKFKGRVTITVDTSASTAYMELSSLRSEDTAVYYCARESWGQGTTVTVSS VL: DVVMTQSPLSLPVTLGQPASISCKSSQSLLHSDAKTYLNWLQQRPGQSPRRLIYLVSKLDSRVPDRFSGSGSGTDFTLKISRVEAEDLGVYYCFQGTHFPHTFGQGTKLEIK	1.9	0.00023	120000	0.431	1.4e-05	33000						
hACI-7069-633B12-Ab1_H16L14 (IgG4) (antibody, V domains shown) VH: EVQLVQSGAEVKKPGASVKVSCKASGFTFTEYSMHWVRQAPGQRLEWMGGINPGNAGTSYNQKFKGRVTITVDTSASTAYMELSSLRSEDTAVYYCARESWGQGTTVTVSS VL: DVVMTQSPLSLPVTLGQPASISCKSSQSLLHSDAKTYLNWLQQRPGQSPRRLIYLVSKLDSGVPDRFSGSGSGTDFTLKISRVEAEDLGVYYCFQGTHFPHTFGQGTKLEIK	9.9	0.0013	140000	0.605	3.3e-05	55000						
hACI-7069-633B12-Ab1_H20L14 (IgG4) (antibody, V domains shown) VH: EVQLVQSGAEVKKPGASVKVSCKTSGFTFTEYSMHWVRQAPGQRLEWIGGINPGNAGTSYNQKFKGRVTITVDTSASTAYMELSSLRSEDTAVYYCARESWGQGTTVTVSS VL: DVVMTQSPLSLPVTLGQPASISCKSSQSLLHSDAKTYLNWLQQRPGQSPRRLIYLVSKLDSGVPDRFSGSGSGTDFTLKISRVEAEDLGVYYCFQGTHFPHTFGQGTKLEIK	11.1	0.0014	130000	1.74	4.4e-05	25000						
ACI-7069-642A10-Ab1 (antibody, mouse IgG1, V domains shown, Mouse IgG1, kappa, from hybridoma; also called 642A10B11) VH: QVQLQQPGAELVKPGASVKLSCKASGYTFTKYWMHWVKQRPGQGLEWIGEINPSNGRTNYNEKFKSKATLTVDKSSSTAYMQLSSLTSEDSAVYYCARYMDYWGQGTSVTVSS VL: not shown							4.64	0.00585	1.26e+06			
642D12B4 Fab (Fab, V domains shown, Fab fragment; also called Fab fragment of ACI-7069-642D12-Ab1) VH: EVQLQQSGAELVKPGASVRLSCTASGFNIKDPYMHWVRQRPKQGLEWIGRIDPADGNTKYDPKFQGKATLTADTSSNVAYLHLSSLTSEDTAVYYCARFYGSSHWYFDVWGAGTTVTVSS VL: DIKMTQSPSSMYASLGERVTITCKASQDIKRYLSWYQQKPWKSPKILIYYATSLADGVPSRFSGTGSGQDYSLTISSLESDDVATYYCLQQGESPYTFGGGTKLEIK							21.8	0.00176	94000	21.8	0.00267	128000
cACI-7069-633B12-Ab1 (human IgG4 S228P chimeric) (antibody, V domains shown, Murine variable domains on a human IgG4 (S228P) constant domain and human kappa; also called chimeric antibody) VH: EVQLQQSGPELVKPGASVKISCKTSGFTFTEYSMHWVKQSHGKSLEWIGGINPNNGGTSYNQKFKGKATLTVDKSSSTAYMELRSLTSEDSAVYYCARESWGQGTTLTVSS VL: not shown	1.7	0.00021	130000	0.238	9.9e-06	42000						

The remaining binders from weak to strong by Kd [1], led by results:

Kd [1] [nM]	koff [1] [s⁻¹]	kon [1] [M⁻¹ s⁻¹]	Kd [2] [nM]	koff [2] [s⁻¹]	kon [2] [M⁻¹ s⁻¹]	Kd [3] [nM]	koff [3] [s⁻¹]	kon [3] [M⁻¹ s⁻¹]	Kd [4] [nM]	koff [4] [s⁻¹]	kon [4] [M⁻¹ s⁻¹]	Binder
13.1	0.00093	70000	1.38	3.5e-05	26000							hACI-7069-633B12-Ab1_H19L17 (IgG4) (antibody, V domains shown) VH: QVQLVQSGAEVKKPGASVKVSCKTSGFTFTEYSMHWVRQAPGQRLEWIGGINPGNAGTSYNQKFKGRVTITVDTSASTAYMELSSLRSEDTAVYYCARESWGQGTTVTVSS VL: DVVMTQSPLSLPVTLGQPASISCKSSQSLLHSDAKTYLNWLLQRPGQSPRRLIYLVSKLDSGVPDRFSGSGSGTDFTLKISRVEAEDLGVYYCFQGTHFPHTFGQGTKLEIK
9	0.0012	130000	1.34	4.2e-05	31000							hACI-7069-633B12-Ab1_H17L14 (IgG4) (antibody, V domains shown) VH: QVQLVQSGAEVKKPGASVKVSCKASGFTFTEYSMHWVKQAPGQRLEWMGGINPGNAGTSYNQKFKGRVTITVDTSASTAYMELSSLRSEDTAVYYCARESWGQGTTVTVSS VL: DVVMTQSPLSLPVTLGQPASISCKSSQSLLHSDAKTYLNWLQQRPGQSPRRLIYLVSKLDSGVPDRFSGSGSGTDFTLKISRVEAEDLGVYYCFQGTHFPHTFGQGTKLEIK
8.3	0.00094	110000	1.2	3.5e-05	29000							hACI-7069-633B12-Ab1_H15L14 (IgG4) (antibody, V domains shown) VH: QVQLVQSGAEVKKPGASVKVSCKASGFTFTEYSMHWVRQAPGQRLEWMGGINPGNAGTSYNQKFKGRVTITVDTSASTAYMELSSLRSEDTAVYYCARESWGQGTTVTVSS VL: DVVMTQSPLSLPVTLGQPASISCKSSQSLLHSDAKTYLNWLQQRPGQSPRRLIYLVSKLDSGVPDRFSGSGSGTDFTLKISRVEAEDLGVYYCFQGTHFPHTFGQGTKLEIK
2.9	0.00026	90000	0.684	1.9e-05	27000							hACI-7069-633B12-Ab1_H20L19 (IgG4) (antibody, V domains shown) VH: EVQLVQSGAEVKKPGASVKVSCKTSGFTFTEYSMHWVRQAPGQRLEWIGGINPGNAGTSYNQKFKGRVTITVDTSASTAYMELSSLRSEDTAVYYCARESWGQGTTVTVSS VL: DVVMTQSPLSLPVTLGQPASISCKSSQSLLHSDAKTYLNWLQQRPGQSPKRLIYLVSKLDSRVPDRFSGSGSGTDFTLKISRVEAEDLGVYYCFQGTHFPHTFGQGTKLEIK
